Data as given in paper PMC5880795, “Cloning and expression of a novel α-1,3-arabinofuranosidase from Penicillium oxalicum sp. 68” (AMB Express, 2018).

Test system: T1, O=[N+]([O-])c1ccc(O[C@@H]2O[C@@H](CO)[C@H](O)[C@H]2O)cc1
T1 construct: signal peptide (predicted residues 1-30) removed; pPIC9K SnaBI/EcoRI, secreted from Pichia pastoris GS115; no tag mentioned
Assay: purified protein
Format: biochemical, Penicillium oxalicum
Settings: 20 mM Na-acetate pH 4.5, 37 °C (standard assay; kinetic conditions not restated)

Chain of PoAbf62A (Penicillium oxalicum 114-2) (chain, as listed by the source): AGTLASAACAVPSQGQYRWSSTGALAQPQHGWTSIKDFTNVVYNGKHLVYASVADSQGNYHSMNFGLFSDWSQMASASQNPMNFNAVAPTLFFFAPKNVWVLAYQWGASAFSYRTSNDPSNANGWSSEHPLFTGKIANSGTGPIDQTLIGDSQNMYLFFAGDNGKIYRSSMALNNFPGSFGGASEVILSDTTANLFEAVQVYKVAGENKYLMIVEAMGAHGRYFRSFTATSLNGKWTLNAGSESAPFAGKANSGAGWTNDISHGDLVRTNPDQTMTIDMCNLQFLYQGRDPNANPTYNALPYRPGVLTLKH

PoAbf62A (Penicillium oxalicum 114-2) showed a Km of 1360 ± 120 µM and a kcat of 0.27 ± 0.01 s⁻¹.
